Laboratory results: patent US20250114467A1 (SHANGHAI FUDAN ZHANGJIANG BIO PHARMACEUTICAL, published 2025)
Residue numbers refer to the chain shown, from its start.

T1: recombinant DLL3 protein (purchased from ACRO, DL3-H5255) (human, UniProt Q9NYJ7 27-479)
T1 construct: Bought; also called human DLL3 protein; hDLL3
T1 sequence (looked up): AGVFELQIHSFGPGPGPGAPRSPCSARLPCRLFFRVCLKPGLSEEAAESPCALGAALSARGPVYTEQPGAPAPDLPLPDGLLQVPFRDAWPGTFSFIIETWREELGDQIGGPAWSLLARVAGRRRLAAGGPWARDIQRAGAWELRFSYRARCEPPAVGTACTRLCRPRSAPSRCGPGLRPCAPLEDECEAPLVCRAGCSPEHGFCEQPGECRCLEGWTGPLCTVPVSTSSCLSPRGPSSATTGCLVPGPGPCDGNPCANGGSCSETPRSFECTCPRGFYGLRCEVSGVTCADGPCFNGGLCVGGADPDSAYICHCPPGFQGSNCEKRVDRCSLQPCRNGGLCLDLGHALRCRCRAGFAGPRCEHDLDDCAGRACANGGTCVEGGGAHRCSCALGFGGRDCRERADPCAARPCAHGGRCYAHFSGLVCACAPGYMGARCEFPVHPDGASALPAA

T2: human DLL1 (purchased from Acro, DL1-H52H8) (human, UniProt O00548 18-540)
T2 construct: Bought; also called hDLL1
T2 sequence (looked up): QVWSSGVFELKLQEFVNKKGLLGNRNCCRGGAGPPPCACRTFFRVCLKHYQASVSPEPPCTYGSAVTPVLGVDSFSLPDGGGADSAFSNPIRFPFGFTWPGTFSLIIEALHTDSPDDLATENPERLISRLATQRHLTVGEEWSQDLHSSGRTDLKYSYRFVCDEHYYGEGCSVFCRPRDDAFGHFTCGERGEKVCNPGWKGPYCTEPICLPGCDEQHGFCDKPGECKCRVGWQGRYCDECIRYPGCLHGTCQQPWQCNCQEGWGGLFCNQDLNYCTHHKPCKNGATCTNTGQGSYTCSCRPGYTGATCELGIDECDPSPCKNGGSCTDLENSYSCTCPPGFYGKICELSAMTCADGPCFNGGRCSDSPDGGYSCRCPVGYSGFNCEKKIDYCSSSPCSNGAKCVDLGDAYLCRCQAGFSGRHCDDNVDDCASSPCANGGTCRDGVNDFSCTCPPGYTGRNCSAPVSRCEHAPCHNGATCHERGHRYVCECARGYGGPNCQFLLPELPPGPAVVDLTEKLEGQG

B1: ch23G2 (antibody, human IgG1, kappa, V domains shown)
VH: QVQLQQSGPELVRPGVSVKISCKGSGYTFTDYAIHWVKQSRAKSPEWIGIVSTDSGKTSFNQKFKGKATMTVDKSSTTAYMELVRLTSEDSAIYYCARNPYYDYDGYAMDYWGQGTSVTVSS
VL: DIQMTQSSSYLSVSLGGRVTIICKASDHINNWLAWYQQKPGNAPRLIISGATSLETGVPSRFSGSGSGKDYTLSITSLQTEDVATYYCQQYWSIPYTFGGGTKLEIKR
notes: Chimeric: murine variable regions on human IgG1 heavy and kappa light constant regions; also called chimeric antibody 23G2
B2: ch15G2 (antibody, human IgG1, kappa, V domains shown)
VH: EVQLQQSGPELEKPGASVRISCKASGYSFTDYNMHWVKQSNGKSLEWIGNIDPYYGGTNYNQKFEGKATLTVDKSSSTAYMQLKSLTSEDSAVYYCARGGNNYGDYWGQGTTLTVSS
VL: DIQMTQSPASLAASVGETVTITCRASENIYYSLAWYQQKQGKSPQLLIFNANSLEDGVPSRFSGSGSGTQYSMKINSMQPEDTATYFCKQAYDVPWTFGGGTKLEIKR
notes: Chimeric: murine variable regions on human IgG1 heavy and kappa light constant regions; also called chimeric antibody 15G2
B3: ch10B1 (antibody, human IgG1, kappa, V domains shown)
VH: DVKLVESGGGLVKPGGSLKLSCAASGFTFSNYTISWVRQTPEKRLEWVATFSSGGSYTYYSDSVKGRFTISRDNAKNTLYLQMSSLKSEDTAMYYCSRDRRSDGYYHLYAMDYWGQGTSVTVSS
VL: DIQMTQTTSSLSASLGDRVTISCRASQDISHYLNWYQQKPDGTVKLLIYYTSRLHSGVPSRFSGSGSGTAYSLTISNLEQEDIATYFCQQGYTLPLTFGAGTKLELKR
notes: Chimeric: murine variable regions on human IgG1 heavy and kappa light constant regions; also called chimeric antibody 10B1
B4: ch33F11 (antibody, human IgG1, kappa, V domains shown)
VH: EVQLQQSGPELVKPGASVKISCKTSGYTFTENTMHWVKQSHGESLEWIGGINPRNGVTSYNQKFKGKATLTVDKSSSTAYMELRSLTSEDSAVYYCTNTYYRDYFDYWGQGTTLTVSS
VL: NIVMTQSPKSMSMSVGERVTLSCKASENVGTYVSWYQQKPDQSPKLLIYGASNRYTGVPDRFTGSGSPTDFTLTISRMQAEDLAHYYCGQTYTYPLTFGAGTKLELKR
notes: Chimeric: murine variable regions on human IgG1 heavy and kappa light constant regions; also called chimeric antibody 33F11
B5: ch1A5 (antibody, human IgG1, kappa, V domains shown)
VH: B4 VH with N32S, T33A, E43K, R54N, V57G, T58I, N61S, T97G, N98S, T99S
VL: B4 VL with K9E, P68A, D70H, R77S, M78V, H85D, Y87H, T91S, T93S
notes: Chimeric: murine variable regions on human IgG1 heavy and kappa light constant regions, expressed in 293F cells; also called chimeric antibody 1A5
B6: ch13C2 (antibody, human IgG1, kappa, V domains shown)
VH: EVKLVESGGGLVKPGGSLKLSCAASGFAFSSYDMSWVRQTPEKRLEWVATISSGGSYTYYPDSVKGRFTISRDNGRNTLYLQMSSLRSEDTALYYCASPLLGLRFAYWGQGTLVTVSA
VL: QAVVTQESALTTSPGETVTLTCRSSTGAVTTINYANWVQEKPDHLFTGLIGGTNNRAPGVPARFSGSLIGDKAALTITGAQTEDEAIYFCALYYSNHWVFGGGTKLTVLR
notes: Chimeric: murine variable regions on human IgG1 heavy and kappa light constant regions; also called chimeric antibody 13C2
B7: ch19C7 (antibody, human IgG1, kappa, V domains shown)
VH: EVQLQQSGPELVRPGASVRMSCKASGYTFTYYVMHWVKQKPGLGLEWIGYINPYNDGTEYNEKFKGKATLTSDKSSSTAFMELSSLTSEDSAVYYCARWLLREYAMDYWGQGTSVTVSS
VL: DIQMTQSPASLSASVGETVTITCRASDNIHNYLAWYQQKQGKSPQLLVYNAKTLADGVPSRFSGSGSGTQYSLKINSLQPEDFGSYYCQHFWSTPWTFGGGTKLEIKR
notes: Chimeric: murine variable regions on human IgG1 heavy and kappa light constant regions; also called chimeric antibody 19C7
B8: ch26D9 (antibody, human IgG1, kappa, V domains shown)
VH: EVQLQQSGPELVKPGASVKMSCKASGYTFTTYVMHWVKQKPGQGLEWIGYINPYNDDTNYNEKFKGKATLTSDKSSSTAYMELSSLTSEDSAVYYCARWGLTGTGDYYAMDYWGQGTSVTVSS
VL: B7 VL with D27G, I29V, K42R, L46V, Q79L, S93T, K103T
notes: Chimeric: murine variable regions on human IgG1 heavy and kappa light constant regions; also called chimeric antibody 26D9
B9: ch32E8 (antibody, human IgG1, kappa, V domains shown)
VH: QVTLKESGPGILQPSQTLSLTCSFSGFSLSTSGMGVGWIRQPSGKGLEWLALIWWDDVKRYHPALKSRLTISKDTSSSQVFLKIASVDTADTATYYCARIAEVTGQVGLHYAMDYWGQGTSVTVSS
VL: QTVLTQSPAIMSASLGERVTMTCTASSSVNSSSLHWYQQKPGSSPKLWIYTTSNLASGVPARFSGSGSGTSYSLTISSMEAEDAATYYCHQFHRSPFTFGSGTKLEIKR
notes: Chimeric: murine variable regions on human IgG1 heavy and kappa light constant regions; also called chimeric antibody 32E8
B10: ch6A2 (antibody, human IgG1, kappa, V domains shown)
VH: EVQLQQSGPELVKPGASVKISCKASGYTFTDYNMNWVKQSQGKSLEWIGYIYPYNGGTGYNQKFKTKATLTVDNSSSTAYMEFRSLTSEDSAVYYCARSDPYYTMDYWGQGTSVTVSS
VL: IIVMTQTPKFLLVSAGDRVTISCKASQSVNNDVAWYQQKPGQSPKLLIYFTSNRFTGVPDRFTGSGYGTDFTFTISSVQAEDLAVYFCQQDHNSPYTFGGGTKLEIKR
notes: Chimeric: murine variable regions on human IgG1 heavy and kappa light constant regions; also called chimeric antibody 6A2

What follows are binders tested against T1, recombinant DLL3 protein (purchased …) (assay: ELISA, plate-coated human DLL3 protein 1 µg/ml).
Text: Six 6-week-old SPF grade female Balb/C mice (purchased from Shanghai Jihui Laboratory Animal Care Co., Ltd.) were selected and randomly divided into two groups, A and B. They were immunized with recombinant DLL3 protein (purchased from ACRO, DL3-H5255) at two-week intervals. Freund's complete adjuvant was used for the first immunization and Freund's incomplete adjuvant was used for subsequent immunizations. On days 35 and 49, blood samples were collected from the mice via orbital bleeding, and the immune serum titers of the mice were detected using conventional methods of ELISA and Flow Cytometry (FACS). ELISA detection method: DLL3 protein was diluted with PBS to a concentration of 1 μg/ml. 100 μl/well was added to a 96-well ELISA plate and incubated overnight at 4° C. The next day, the supernatant was discarded, and each well was blocked with 200 μl of 2% milk in PBS for 2 hours. After discarding the blocking solution, the wells were washed 3 times with 200 μl of PBST (0.1% Tween20). The serum to be detected was pre-diluted 100 times as the starting concentration, followed by a 3-fold gradient dilution across 11 concentrations, with 100 μl added to each well of the ELISA plate. After incubating at room temperature for 1 hour, the supernatant was discarded and the wells were washed 5 times with 200 μl of PBST (0.1% Tween20). Then, 100 μl of HRP-labeled goat anti-mouse secondary antibody (Jackson, 1:10000) was added and incubated at room temperature for 1 hour. After discarding the supernatant, the wells were washed 7 times with 200 μl of PBST (0.1% Tween20). 100 μl of TMB chromogen solution was added to each well for 10 minutes. The reaction was terminated with 2M HCl, and absorbance value at 450 nm was read with a Microplate Reader (purchased from Biotek, Elx808).
For the hybridoma clones with good binding and internalization activities identified in Example 5, the heavy chain variable region sequences were synthesized and cloned into the pFUSEss-CHIg-hG1 vector (purchased from InvivoGen, catalog number pfusess-hchgl) comprising the amino acid sequence of the human antibody IgG1 heavy chain constant region by homologous recombination.

B1 was tested. Which EC50 did it give?
Its EC50 is 9.41 ng/mL.

How did the EC50 turn out when B2 was run?
Its EC50 is 8.53 ng/mL.

Which EC50 does the source give for B3 here?
Its EC50 is 16.8 ng/mL.

B4 was tested. Which EC50 did it give?
The EC50 was 9.55 ng/mL.

How did the EC50 turn out when B5 was run?
Its EC50 is 9.21 ng/mL.

For B6, which EC50 is on record?
The EC50 was 395 ng/mL.

B7 was tested. Which EC50 did it give?
Its EC50 is 8.66 ng/mL.

How did the EC50 turn out when B8 was run?
The EC50 was 11.8 ng/mL.

For B9, which EC50 is on record?
Its EC50 is 8.83 ng/mL.

With B10 as the binder, how does the EC50 read?
Its EC50 is 13.1 ng/mL.

Each binder was assayed against T2, human DLL1 (purchased from Acro, …) (assay: ELISA on plate-coated human DLL1 protein (1 µg/ml), HRP goat anti-human secondary, OD 450 nm [left panel]).
Experimental: (§1) The chimeric antibodies obtained in Example 6 were evaluated for their binding abilities to human DLL1 (purchased from Acro, DL1-H52H8) and DLL4 (purchased from Acro, DL4-H5227) proteins using the ELISA method. The ELISA detection method involved diluting DLL1 and DLL4 proteins with PBS to a final concentration of 1 μg/ml and coating them onto 384-well ELISA plates (purchased from Corning, 3700) at 4° C. overnight. The next day, the supernatant in the plate wells was discarded, and the wells were blocked with 80 μl of 3% milk (dissolved in PBS) for 2 hours, followed by washing three times with 80 μl of PBST (0.1% Tween20). […] After washing with 80 μl of PBST (0.1% Tween20) for five times, 25 μl of HRP-labeled goat anti-human secondary antibody (Jackson, 1:10000) was added to each well and incubated at room temperature for 1 hour, discard the supernatant, and the wells were then washed seven times with 80 μl of PBST (0.1% Tween20). After adding 25 μl of TMB chromogen solution for 10 minutes, the reaction was terminated with 2M HCl, and the absorbance value at 450 nm was measured with a Microplate reader (purchased from Biotek, Elx808). […] To assess the cross-reactivity of the antibodies with mouse and monkey DLL3, mouse DLL3-expressing plasmid pCMV3-mDLL3 (purchased from Beijing Yiqiao, MG58052-UT) and monkey DLL3-expressing plasmid pCMV3-rheDLL3 (purchased from Beijing Yiqiao, CG90919-UT) were used to construct overexpressing cell lines. The construction of overexpressing cells was as described in Examples 2-3. The binding abilities of the chimeric antibodies to these cells were determined by flow cytometry to assess the cross-reactivity of the antibodies with different species.

Does B1 bind?
Result: no binding (tested: 20 µg/ml)

Does B2 bind?
Result: no binding (tested: 20 µg/ml)

Does B3 bind?
Result: no binding (tested: 20 µg/ml)

Does B4 bind?
Result: no binding (tested: 20 µg/ml)

Does B5 bind?
Result: no binding (tested: 20 µg/ml)

Does B6 bind?
Result: no binding (tested: 20 µg/ml)

Does B7 bind?
Result: no binding (tested: 20 µg/ml)

Does B8 bind?
Result: no binding (tested: 20 µg/ml)

Does B9 bind?
Result: no binding (tested: 20 µg/ml)

Does B10 bind?
Result: no binding (tested: 20 µg/ml)

What follows are binders tested against T3, human DLL4 (purchased from Acro, DL4-H5227) (human, UniProt Q9NR61 27-524) (assay: ELISA on plate-coated human DLL4 protein (1 µg/ml), HRP goat anti-human secondary, OD 450 nm [right panel]).
T3 construct: Bought; also called hDLL4
T3 sequence (Q9NR61 27-524 limits assumed): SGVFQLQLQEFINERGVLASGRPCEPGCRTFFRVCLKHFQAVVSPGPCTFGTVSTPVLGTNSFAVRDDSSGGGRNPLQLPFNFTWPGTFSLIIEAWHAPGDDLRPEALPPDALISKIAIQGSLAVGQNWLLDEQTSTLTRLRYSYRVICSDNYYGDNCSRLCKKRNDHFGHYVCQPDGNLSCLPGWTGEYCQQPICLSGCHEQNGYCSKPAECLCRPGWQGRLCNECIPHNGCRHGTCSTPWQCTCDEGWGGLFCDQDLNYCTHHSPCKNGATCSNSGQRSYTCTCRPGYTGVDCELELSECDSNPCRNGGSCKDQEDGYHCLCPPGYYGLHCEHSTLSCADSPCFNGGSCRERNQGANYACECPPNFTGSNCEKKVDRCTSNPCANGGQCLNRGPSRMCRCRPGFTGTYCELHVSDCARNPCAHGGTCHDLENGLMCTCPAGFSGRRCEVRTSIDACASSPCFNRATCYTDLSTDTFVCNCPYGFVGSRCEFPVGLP
Experimental: as §1

Does B2 bind?
Result: no binding (tested: 20 µg/ml)

Does B4 bind?
Result: no binding (tested: 20 µg/ml)

Does B5 bind?
Result: no binding (tested: 20 µg/ml)

Does B6 bind?
Result: no binding (tested: 20 µg/ml)

Does B7 bind?
Result: no binding (tested: 20 µg/ml)

Does B8 bind?
Result: no binding (tested: 20 µg/ml)

Does B9 bind?
Result: no binding (tested: 20 µg/ml)

Does B10 bind?
Result: binds
